Source: publication PMC3864119 (Journal of proteome research, 2013)

Molecular target: FLAG-tagged human GABAC-ρ1 subunit V353D (human, UniProt P24046 22-479, V353D)
Assay: co-IP

B1: Calnexin (natural protein, human (endogenous in HEK293), UniProt P27824 21-592, looked up)
chain: HDGHDDDVIDIEDDLDDVIEEVEDSKPDTTAPPSSPKVTYKAPVPTGEVYFADSFDRGTLSGWILSKAKKDDTDDEIAKYDGKWEVEEMKESKLPGDKGLVLMSRAKHHAISAKLNKPFLFDTKPLIVQYEVNFQNGIECGGAYVKLLSKTPELNLDQFHDKTPYTIMFGPDKCGEDYKLHFIFRHKNPKTGIYEEKHAKRPDADLKTYFTDKKTHLYTLILNPDNSFEILVDQSVVNSGNLLNDMTPPVNPSREIEDPEDRKPEDWDERPKIPDPEAVKPDDWDEDAPAKIPDEEATKPEGWLDDEPEYVPDPDAEKPEDWDEDMDGEWEAPQIANPRCESAPGCGVWQRPVIDNPNYKGKWKPPMIDNPSYQGIWKPRKIPNPDFFEDLEPFRMTPFSAIGLELWSMTSDIFFDNFIICADRRIVDDWANDGWGLKKAADGAAEPGVVGQMIEAAEERPWLWVVYILTVALPVFLVILFCCSGKKQTSGMEYKKTDAPQPDVKEEEEEKEEEKDKGDEEEEGEEKLEEKQKSDAEEDGGTVSQEEEDRKPKAEEDEILNRSPRNRKPRRE
- fold change of the ratio of immunoprecipitated calnexin/ρ1 against WT: 1.8 fold
